# Assay results: the nanobody polyreactivity screen of Harvey et al. (2022)
# Assay: yeast display, Sf9 membrane polyspecificity reagent, FACS + sequencing; frameworks hold sequencing errors
# Method in brief: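 Synthetic nanobody libraries on Saccharomyces cerevisiae BJ5465 were galactose-induced for 36–48 hours, stained 1 hour at 4 °C with 10% biotinylated, detergent-solubilized Sf9 membrane reagent and enriched on streptavidin microbeads. FACS then separated cells into low and high (top ~1%) gates by anti-HA (expression) and streptavidin (reagent binding) fluorescence. Genes were colony-PCR amplified, MiSeq 2 × 250 sequenced and CDR-length filtered. A clone's polyreactivity label is that of its gate of origin.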
row,Sequence,polyreactivity (PSR sort gate)
1,QVQLVESGGGLVQAGASLRLSCAASGSTFYYYAMGWYRQAPGKERELVAAITYRGGSTYYADSVKGRFTISRDNAKNTDFLQMNSLKPEDPAVYYCAADIVTGFISGPGYVYWGQGTQVTVSS,high polyreactivity
2,QVQLVESRGGLVQAGGSLRLSCAASGSIFDVNAMGWYRQAPGKERELVAAISQRGTRTYYADSVKGRFTISRDNAKNTVYLQMNSLKPEDTAVYYCNRGGWREYDSWGQGTQVTVSS,high polyreactivity
3,QVQLVESGGGLVQAGGSLRLSCAASGYTFRFNAMGWYRQAPGKERELVARISKSGGSTYYADSVKGRFTISRDNAKNTVYLQMNSLKPEDTAVYYCAAKDYVWGQGTQVTVSS,low polyreactivity
4,QVQLVESGGGLVQAGGSLRLSCAASGSTFRGYAMGWYRKATGKERELVATNSGSDGTTYYADSVKGRFTISRENAKNTVYLQMNSLKPEDTAVYYCAAGETFEMYYWGQGTQVTVSS,low polyreactivity
5,QVQLVESGGGLVQAGGSLRLTCAASGFIFPRYAMGWYRQAPGKERELVAAISGNGVRTYYADSVKGRFTISRDNAKNTVYLQMNSLNPEDTAVYYCNTGADVRYRYYYWGQGTQVTVSS,high polyreactivity
6,LVQLVESGGGLVQAGGSLRLSCAASGIIFRFYDMGWYRQAPGKERELVAAISWDGTSTYYADSVKGRFTISRDNAKNTVSLQMNSQKPEDTAVYYCAADWVGSPWWYLWYGYWGQGTQVTVSS,high polyreactivity
7,QVQLVESGGGLVQAGGSLRLSCAASGSIFSGNTMGWYRQAPGKERELVAAISGGGSTNYADSVKGRFTISRDNAKNTVYLQMNSLKPEDTAVYYCAAEPDHVADSHSGYDYWGQGTQVTVSS,low polyreactivity
8,QVQLVESGGGLVQAGGSLRLSCAASGLTFTNYAMGWYRQAPGKELELVAAISSSGSDTYYADSVKGRFTISRDNAKNTVYLQMNSLKPEDTAVYYCAAVLTALSPDFEYEYWGQGTQVTVSS,low polyreactivity
9,QDQLVESGGGLVQAGGSLRLSCAASASTFPYNPMGRYRQAPRKERELVAAITATDDSTYYADSVKGRFTISRDNAKNTVYLQMNSLKPEDTAVYYCAADFGGYVFYFGYDYWGQGTQVTVSS,low polyreactivity
10,QVQLVESGGGLVQAGGSLRLSCAASGFIFVNYAMGWNRQAPGKERELVAAISARGGSTNYADSVKGRFTISRDNAKNTVYLQMNSLKPEDTAVYYCAARYTARRQSYGYWGQGTQVTVSS,high polyreactivity
11,QVQLVESGGGLVQAGGSLRLSCAASGRTFAYYAMGWYRQAPGKERELVAAIDSSGGSTYYADSVKGRFTISRDNAKNTVYLQMNSLKPEDTAVYYCAASYPYDRYDQGGYGYWGQGTQVTVSS,low polyreactivity
12,QVQLVESGGRLVQAGGSLRLSCAASGRTFRAYVMGWYRQSPGKERELVAAISSSGGRTYYADSVKGRFTISRDNAKNTVYLQMNSLKPEDTAVYYCAAQAVRGGIGEDDYWGQGTQVTVSS,high polyreactivity
13,QVQLVESGGGLVQAGGSLRLSCAASGRTFFIYAMGWYRQAPGKERELVAAIRWRGGSTYYADSVKGRFTISRDNAKNTVYLLMNSLKPEDTAVYYCAASTRQARYEDYYWGQGTQVTVSS,high polyreactivity
14,QVQLVESGGGLVQAGGSLRLSCAASGRIFNWYAMGWYRQAPGKERELVARISSGDITSYADSVKGRFTISRDNAKNTVYLQMNRLKPEDTAVYYCDARQWFLYDYWGQGTQVTVSS,low polyreactivity
15,QVQLVESGGGLVQAGGSLRLSCAASGSTISYYAMGWYRQAPGKERELVAAISSRGVITYYADSVKGRFTISRDNAKNTVYLQMNSLKPEDTAVYYCNVDSAWYPYETEDYWGQGTQVTVSS,low polyreactivity
16,QVQLVESGGGLVQAGGSLRLSCADSGSTFRANAMGWYRQAPGKERELVAAISQSGGITYYADSVKGRFTISRDNAKNSVYLQMNSLKPEDTAVYYCAAEYWFYYVDSFYYWGQGTQVTVSS,high polyreactivity
17,QVQLVESGGGLVQAGGSLRLSCAASGNTFIDYAMGWYRQAPGKERELVASITSGGGSTYYADSVKGRFTISRDNAKNTVYLQMNSLKPEDTAVYYCAAERYYSEAIFRSYDYWGQGTQVTVSS,low polyreactivity
18,QVPLVESGGGLVQAGGSLRLSCAASGSTLYGYAMGWSSQAPGKERELVAAISYSGGRTFYADSVKGRFTISRDNAKNTVYLQMNSLKPADSAVYYCAAEYTVYVTDWYDYYDWGQGTQVTVAS,low polyreactivity
19,QVQLVESGGGLVQAGGSLRLSCAASGRTIEHSAMGWYRQAPGKERELVAAINSSDGGTYYADSVKGRFTISRDNPKNTVYLQMNSLKPEDTAVYYCAAAEFGSVPGYEMDYWGHGTQVTVSS,low polyreactivity
20,QVQLVESGGGLVQAGGSLRLSCAASGSILEGNGMGWYRQAPGKERELVASITRSGGSTYYSDSVKGRFTISRDNAKNTVYLQMNSLKPEDTAVYYCAAKGSTYGLTIRWYPYLHGYNYWGQGTQVTVSS,low polyreactivity
21,QVQQQASGGGLVQAGGSLRLSCATSGSIFYADTMGWYRQAPGKEREFVITYYADSVKGLSRDNAKNTVYLQMNSLKPEDSAVYYCATDGVNPFYAYDYWGQGTQVTVSS,low polyreactivity
22,QVQLVESGGGLVQAGGSLRLSCAASGIILSAYAMGWYRQAPGKERELVARISRSGGRTYYADSVKGRFTISRDNAKNTVYLQMNSLKPEDTAVYYCAADYTYGFGLYFGYGYWRQGTQVTVSS,high polyreactivity

row,Sequence,polyreactivity (PSR sort gate)
1,QGQLVESGGGLVQAGGSLRISCAASGRIYRINAMGWYRQAPGKERELVANITSGGGSTYADSVKGRFTISRDNAKNTVYLQMNSRKPEDTAVYYCAARSRIGRYTYDYWGQGTQVTVSS,high polyreactivity
2,QVQLVESGGGLVQAGGSLRLSCAASGFTFTSYAMGWYRQAPGKERELVAAINRSGGSTTYADSVKGRFTISRDNAKNTVYLQMNSLNPEDTAVYYCAKAFRGHYWGQGTQVTVSS,high polyreactivity
3,QVQIVESGGGLVQAGGSLRLSCAASGSIFRYYAMAWYRQETGKERELVARISSGVSTNYADSVKGRFTISRDNAKNSVYLQMNSLKPEDTAVYYCNARTGWTGRGRYSLRYDYWGQGTQVTVSS,high polyreactivity
4,QVQLVESGGGLVQAGGSLRLSCAASGFIIHRYAMGWYRQAPGKERELVAVITSGGGSTYYADSVKGRFTISRDNAKNTVYLQMNSLKPEDTAVYYCAAYQPYNSRYRYDYWGQGTQVTVSS,high polyreactivity
5,QVQLVESGGGLVQAGGSLRLSCAASGFTFGVYAMGWYRQAPGKERELVAAITATGGSTYYADSVKGRFTISRDNAKNTVYLQMNSLKPEDTAVYYCAADLDGTLSVYDYHTTGDDYWGQGTQVTVSS,low polyreactivity
6,QVQLVESGGGLVQAGGSLRLSCAASGRTFARNAMGWYRHAPGKERELVAAISGSGGITYYADSVKGRFTISRDNAKNTVYLQMNSLKPEDTAVYYCNAGNNVVVDYDYWGQGTQVTVSS,low polyreactivity
7,QVQLVESGGGLVQAGGSLRLSCAASGRIFRYNAMGWYRQAPGKERELVAAISWTVGRTYYADSVKGRFTISRDNAKNTVYLQMNSLKPEDTAVYYCATYFRVWYRSYDYWGQGTQVTVSS,high polyreactivity
8,QVQLVESGGGLVQAGGSLRLSCAASGSIFGRNALGWSRQAPGKERELVAAIRDSGTSTYYADSVKGRFTISRDNAKNTVYLQMNSLKPEDTAVYYCAASRRPGYTYGYWGQGTQVTVSS,high polyreactivity
9,QVQLVESGGGLVQAGGSLRLSCAASGSTFFYYTIGWYRQAPGKERELVASITNRGGNTYYADSVKGRFTISRDNAKNTVYLQTNSLKPEDTAVYYCARRYYGYSGRYDYWGQGTQVTVSS,high polyreactivity
10,QVQLVESGGGLVQAGGSLRLSCAASGGTFGNYAMGWYRQAPGKERELVAAISTRGGSTYYADSVKGRFTISCDNAKNTVYLQMNSLKPEDTAVYYCNARIKRPRGVYGGDYWGQGTQVTVSS,high polyreactivity
11,QVQLVESGGGLVQAGGSLRLSCAASGSILYYYTMGWYRQAPGKERELVAAINTSGGITYYADSVKGRFTISRDNAKNTVYLQMNSLKPEDTAVYYCAAEGPEIKYYYWGQGTQVTVSL,low polyreactivity
12,QVQLVESGGGLVQAGGSLRLSCAASGRTFTRYTMGWYRQAPGKERELVAAISYSGGSTYYADSVKGRFTISRDNAKNTVYLQMNSLKPEDTAVYYCAAASVRWPGYDYWGQGTQVTVSS,high polyreactivity
13,QVQLVESGGGLVQAGGSLRLSCAASGRTFSTYAMGWYRQAPGKERELVAGISRGGGSTYYADSVKGRFTISRDNAKNTVYLQMNSLKPEDTAVYYCAAKRPQYYVQYGYWGQGTQVTVSS,high polyreactivity
14,QVQLVESGGGLVQAGGSLRLSCAASGRIFVTNTMGWYRQAPGKERELVAAIDNSAGSTYYADSVKGRFTISRDNAKNTVYLQMNSLIPEDTAVYYCAADYPPYYAYGYWGQGTQVTVSS,low polyreactivity
15,QVQLVESGGGLVQAGGSLRIICAASGRTFATYAMGWYRQAPGKERELVAVISRSGGRTYYADSVKGRFTISRDNAKNTVYLQMNSLKPEDTAVYYCAASYGPSTWTSSYYYWGQGTQVTVSS,high polyreactivity
16,QVQLVESGGGLVQAGGSLRLSCAASGFIFDYYAMGWYRQAPGKERELVAAITSRSGSTYYADSVKGRFTISRDNAKNTVYLQMNSLKPEDTAVYYCARRFKYGSTAWRFYYWGQGTQVTVSS,high polyreactivity
17,QVQLVESGGGLVQAGGSLRLSCAASGSTFPGYAMGWYRQAPGKERELVAAGGSTYYADSVKGRFTISRDNAKNTVYFQMNSLKPEDTAGYYCAATWGSVQKGTYYYWGQGTQVTVSS,low polyreactivity
18,QVHLLESGRGLVQAGGSLRLSCAASGRIFYTNAMGSYRQAPGKERELVAVISWGGDTTYYADSVKGRFTISRDNAKNTVYLQMNSLKPEDTAGYYCNADWGPTYEISDSWGQGNQVTVSS,low polyreactivity
19,QVQLVESGGGIVQAGGSLRLSCAASGRTFKRYAMGWYRPAPGKERELVAAITRSGGSTYYADSVKGRFTISRDNAKNTVYLQMNSLKPEDTAVYYCATRSYNNELEYWGQGTQVTVSS,high polyreactivity
20,QVQLVESGGGLVQAGGSLRLSCAASGSILGTYAMGWYRQAPGKERELVAAISSSGRTSYADSVKGRFTISRDNAKNTVYLQMNSLKPEDTAVYYCNASNYIFLINDPDAAPWLYDYWGQGTQVTVSS,low polyreactivity
21,QVQLVESGGGLVQAGGSLRLSCAASGRTIDHYAMGWYRQAPGKERELVAAISTTGGSTYYADSVKGRFTISRDNAKNTVYLQMNSLKPEDTAVYYCAARQRYFWYTTNYNYWGQGTQVTVSS,high polyreactivity
